Source: article PMC9175631 (Journal of Virology, 2022)

Assays:
[1] = biological target: ZIKV prM/E (ZIKV SPH2015), prM G59A (Zika virus (ZIKV SPH2015)); assay: flow cytometry on cells
[2] = biological target: ZIKV prM/E (ZIKV SPH2015), E G100A (Zika virus (ZIKV SPH2015)); assay: flow cytometry on cells
[3] = biological target: ZIKV prM/E (ZIKV SPH2015), E G182A (Zika virus (ZIKV SPH2015)); assay: flow cytometry on cells
[4] = biological target: ZIKV prM/E (ZIKV SPH2015), E E162A (Zika virus (ZIKV SPH2015)); assay: flow cytometry on cells
[5] = biological target: T1, ZIKV prM protein of heat-denatured ZIKV-VLP (Western band) (Zika virus, Suriname Z1106033, UniProt A0A0U4DG08, strain); assay: Western blot (Wes capillary electrophoresis); 27 or 240 ng ZIKV-VLP denatured at 70°C for 5 min without reducing agent, electrophoresed, probed with 10 μg/mL MAb; settings: both partners purified
T1 construct: subunit of m13; also called precursor membrane protein

[6] = biological target: T2, wild-type ZIKV prM/E (ZIKV SPH2015) (Zika virus, SPH2015, UniProt A0A0U3FSM8, strain); assay: flow cytometry on cells; settings: one partner purified
T2 construct: also called WT prM/E; wild-type prM/E; source: HEK-293T, transfected, cells fixed and permeabilised

B1: anti-ZIKV MAb 278-11 (antibody, V domains shown)
VH: QSLEESGGGLVQPEGSLTLACTASEFDSSSNAMCWVRQAPGKGLEWIARIYSGSGTIYYANWARGRFTISKTSSTTVTLQMTSLTDADTATYFCARYNTGGFYYDLWGPGTLVTVSS
VL: ALVMTQTPASVEAAVGGTVTINCQASQRIGTNLAWYQQKPGQPPKVLIYKASTLASGVSSRFIGSGSGTDYTLTISGVECDDAATYYCQQGYSSNDADNTFGGGTEVVVK
notes: recombinant rabbit IgG; source: 293-6E cells, cotransfected, purified (MabSelect SuRe protein A)
For B1, which antibody binding reactivity (% WT) [1] is on record?
The antibody binding reactivity (% WT) was 28.5 % WT.

What about the antibody binding reactivity (% WT) [2] of the same binder?
The antibody binding reactivity (% WT) was 95.1 % WT.

And the antibody binding reactivity (% WT) [3]?
The antibody binding reactivity (% WT) was 85.9 % WT.

What about the antibody binding reactivity (% WT) [4] of the same binder?
Its antibody binding reactivity (% WT) is 77.8 % WT.

Does B1 bind [5]?
Result: binds

Does B1 bind [6]?
Result: binds
